One molecule from patent US20150219635A1 can be followed below.

This experiment addresses IgE-Fc(E289C)_BirA, terbium chelate labelled, biotinylated, mixed with Alexa488 labelled streptavidin (human), P01854. Briefly: cell-based or functional assay.

IgE-Fc(E289C)_BirA, terbium chelate labelled, biotinylated, mixed with Alexa488 labelled streptavidin (human), P01854, sequence (P01854 other isoform, or with tags, fused parts or gaps, stated change not applied): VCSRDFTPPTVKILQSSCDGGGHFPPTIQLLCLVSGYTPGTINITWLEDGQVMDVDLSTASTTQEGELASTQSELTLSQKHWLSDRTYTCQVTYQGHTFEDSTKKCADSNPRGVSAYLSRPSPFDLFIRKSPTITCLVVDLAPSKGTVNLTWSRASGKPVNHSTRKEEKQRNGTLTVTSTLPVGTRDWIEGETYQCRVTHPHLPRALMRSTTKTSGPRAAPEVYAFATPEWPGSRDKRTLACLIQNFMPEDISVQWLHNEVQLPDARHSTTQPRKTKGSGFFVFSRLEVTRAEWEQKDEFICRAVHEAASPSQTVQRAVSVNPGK

B1: Fab7 (anti-human IgE Fab, human IgG1 Fab format) (Fab)
heavy: QVQLQQSGPGLVKPSQTLSLTCGISGDSVSSNSAAWNWLRQSPSRGLEWLGRTYYRSKWYNDYAVSMKSRITINPDTSRNQFSLQLNSVTPEDTAVYYCARDGEISYDYYYYGMDVWGRGTLVTVSSASTKGPSVFPLAPSSKSTSGGTAALGCLVKDYFPEPVTVSWNSGALTSGVHTFPAVLQSSGLYSLSSVVTVPSSSLGTQTYICNVNHKPSNTKVDKKVEPKSC
light: not shown
modifications: here or on the partner: thiol reactive terbium chelate on the Cys of E289C; biotin on the C-terminal BirA recognition motif (carrying Alexa488 labelled streptavidin)
The molecule B1 returned a normalised FRET, mean, at [Fab] 0.152 nM of 1; a normalised FRET, mean, at [Fab] 0.45 nM of 0.2; a normalised FRET, mean, at [Fab] 1.37 nM of 1.55; a normalised FRET, mean, at [Fab] 4.4 nM of 0.1. Moreover, the normalised FRET, mean, at [Fab] 12.3 nM came out at 2; the normalised FRET, mean, at [Fab] 37.03 nM came to 9.68; the normalised FRET, mean, at [Fab] 111 nM came to 28.8; the normalised FRET, mean, at [Fab] 333 nM worked out at 39.3. In addition, the normalised FRET, mean, at [Fab] 1000 nM was determined as 43.4 and the normalised FRET, mean, at [Fab] 3000 nM was found to be 41.
